These results are taken from patent US20120301433A1, “BACTERIOPHAGES EXPRESSING AMYLOID PEPTIDES AND USES THEREOF” (priority 2009, published 2012).

This experiment concerns the target amyloid-b1-42 peptide (UniProt P05067). As to the kind of experiment: cell-based or functional assay.

Chain of amyloid-b1-42 peptide (P05067 672-713 limits assumed): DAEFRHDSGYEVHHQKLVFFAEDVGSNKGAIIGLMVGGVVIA
Chain of T7-RRR-CsgB133-142-PPP (P19727 1-348, tags or fused parts left off): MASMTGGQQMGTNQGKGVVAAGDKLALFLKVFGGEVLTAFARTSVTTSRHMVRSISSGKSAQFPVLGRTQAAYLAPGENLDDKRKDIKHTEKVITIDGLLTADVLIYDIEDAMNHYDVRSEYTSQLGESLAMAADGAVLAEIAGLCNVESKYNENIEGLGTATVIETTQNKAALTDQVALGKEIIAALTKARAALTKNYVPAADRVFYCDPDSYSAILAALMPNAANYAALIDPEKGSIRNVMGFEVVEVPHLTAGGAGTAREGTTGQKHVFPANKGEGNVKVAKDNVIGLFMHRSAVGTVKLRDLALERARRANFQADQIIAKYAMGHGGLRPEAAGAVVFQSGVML

For “T7-RRR-CsgB133-142-PPP (from UniProt P19727 1-348)”, the Aβ:peptide molar ratio at the doubling of the lag time is 70000 and the phage concentration that doubles the lag time of Aβ fiber formation is 5e+07 PFU/mL.
